Data: PMC6400558 (2019)

B1: MBP-tagged Hook2 Hook+CC1 (N427) WT [human] / GST-tagged LIC1 (389–523 aa) [not stated] (parent complex)
chain 1: MSVDKAELCGSLLTWLQTFHVPSPCASPQDLSSGLAVAYVLNQIDPSWFNEAWLQGISEDPGPNWKLKVSNLKMVLRSLVEYSQDVLAHPVSEEHLPDVSLIGEFSDPAELGKLLQLVLGCAISCEKKQDHIQRIMTLEESVQHVVMEAIQELMTKDTPDSLSPETYGNFDSQSRRYYFLSEEAEEGDELQQRCLDLERQLMLLSEEKQSLAQENAGLRERMGRPEGEGTPGLTAKKLLLLQSQLEQLQEENFRLESGREDERLRCAELEREVAELQHRNQALTSLAQEAQALKDEMDELRQSSERAGQLEATLTSCRRRLGELRELRRQVRQLEERNAGHAERTRQLEDELRRAGSLRAQLEAQRRQVQELQGQRQEEAMKAEKWLFECRNLEEKYESVTKEKERLLAERDSLREANEELRCAQLQ
chain 2: TAAGRPVDASPRVPGGSPRTPNRSVSSNVASVSPIPAGSKKIDPNMKAGATSEGVLANFFNSLLSKKTGSPGGPGVSGGSPAGGAGGGSSGLPPSTKKSGQKPVLDVHAELDRITRKPVTVSPTTPTSPTEGEAS

Variants of: B1
Assay: GST pull-down, anti-MBP immunoblot, band intensity quantified; n = 3; parent: 0.95; read off a plot

Q: chain 1 MSVDKAELCGSLLTWLQTFHVPSPCASPQDLSSGLAVAYVLNQIDPSWFNEAWLQGISEDPGPNWKLKVSNLKMVLRSLVEYSQDVLAHPVSEEHLPDVSLIGEFSDPAELGKLLQLVLGCAISCEKKQDHIQRIMTLEESVAHVVMEAIQELMTKDTPDSLSPETYGNFDSQSRRYYFLSEEAEEGDELQQRCLDLERQLMLLSEEKQSLAQENAGLRERMGRPEGEGTPGLTAKKLLLLQSQLEQLQEENFRLESGREDERLRCAELEREVAELQHRNQALTSLAQEAQALKDEMDELRQSSERAGQLEATLTSCRRRLGELRELRRQVRQLEERNAGHAERTRQLEDELRRAGSLRAQLEAQRRQVQELQGQRQEEAMKAEKWLFECRNLEEKYESVTKEKERLLAERDSLREANEELRCAQLQ [chain 1 Q143A] was tested. Which response did it give?
A: ~0.22 Pulldown/Input

Q: How did the response turn out when chain 1 MSVDKAELCGSLLTWLQTFHVPSPCASPQDLSSGLAVAYVLNQIDPSWFNEAWLQGISEDPGPNWKLKVSNLKMVLRSLVEYSQDVLAHPVSEEHLPDVSLIGEFSDPAELGKLLQLVLGCAISCEKKQDHIQRIMTLEESVQHVVMEAAQELMTKDTPDSLSPETYGNFDSQSRRYYFLSEEAEEGDELQQRCLDLERQLMLLSEEKQSLAQENAGLRERMGRPEGEGTPGLTAKKLLLLQSQLEQLQEENFRLESGREDERLRCAELEREVAELQHRNQALTSLAQEAQALKDEMDELRQSSERAGQLEATLTSCRRRLGELRELRRQVRQLEERNAGHAERTRQLEDELRRAGSLRAQLEAQRRQVQELQGQRQEEAMKAEKWLFECRNLEEKYESVTKEKERLLAERDSLREANEELRCAQLQ [chain 1 I150A] was run?
A: ~0.18 Pulldown/Input
